Assay results as given in patent US20190338048A1.
“And” between values parts separate entries of the source, which are not always exact repeats. Equal entries are not always repeated. Where two headings read alike, the source gives them in different places. Blank lines part the entries; values can stand above or below the substance they belong to.

Experiments:
[1] = target: Pertuzumab light chain (kappa) S176D_T178E, HA-tagged; assay: LCCA
[2] = target: Pertuzumab light chain (kappa) S176E_T178E, HA-tagged; assay: LCCA
[3] = target: Pertuzumab light chain (kappa) S131D_V133G_T178F, HA-tagged; assay: LCCA
[4] = target: Pertuzumab light chain (kappa) S176E_T178E, HA-tagged; assay: LCCA; remark: listed apart in the source
[5] = target: Pertuzumab light chain (kappa) S131D_V133G_T178F, HA-tagged; assay: LCCA; remark: listed apart in the source
[6] = target: Pertuzumab light chain (kappa) S131E_V133G_T178F, HA-tagged; assay: LCCA
[7] = target: Pertuzumab light chain (kappa) S176E_T178E, HA-tagged; assay: LCCA; remark: listed apart in the source
[8] = target: Pertuzumab light chain (kappa) V133I_S176D_T178E, HA-tagged; assay: LCCA
[9] = target: Pertuzumab light chain (kappa) V133D, HA-tagged; assay: LCCA
[10] = target: Pertuzumab light chain (kappa) V133D_Q160E, HA-tagged; assay: LCCA
[11] = target: Pertuzumab light chain (kappa) V133D, HA-tagged; assay: LCCA; remark: listed apart in the source
[12] = target: Pertuzumab light chain (kappa) V133D_Q160E, HA-tagged; assay: LCCA; remark: listed apart in the source
[13] = target: Pertuzumab light chain (kappa) V133D, HA-tagged; assay: LCCA; remark: listed apart in the source
[14] = target: Pertuzumab light chain (kappa) V133D_Q160E, HA-tagged; assay: LCCA; remark: listed apart in the source
[15] = target: CAT-2200 light chain (lambda) E124Q_T131K_V133S, FLAG-tagged; assay: LCCA
[16] = target: CAT-2200 light chain (lambda) E124Q_T131K_V133S, FLAG-tagged; assay: LCCA; remark: listed apart in the source
[17] = target: CAT-2200 light chain (lambda) T131K_V133S, FLAG-tagged; assay: LCCA
[18] = target: Pertuzumab light chain (kappa) V133D, HA-tagged; assay: LCCA; remark: listed apart in the source
[19] = target: Pertuzumab light chain (kappa) V133D_Q160E, HA-tagged; assay: LCCA; remark: listed apart in the source
[20] = target: SGN-CD19a kappa light chain (L2) with T178E_T180E, design 2830, System C; assay: SMCA, LC-MS
[21] = target: SGN-CD19a kappa light chain (L2) with T178E_T180E, design 2830, System C
[22] = target: Pertuzumab light chain (kappa) V133G_S176D, HA-tagged; assay: LCCA
[23] = target: Pertuzumab light chain (kappa) V133G_S176D, HA-tagged; assay: LCCA; remark: listed apart in the source
[24] = target: CAT-2200 light chain (lambda) V133I_L135K, FLAG-tagged; assay: LCCA
[25] = target: CAT-2200 light chain (lambda) V133I_L135R_Y178F, FLAG-tagged; assay: LCCA
[26] = target: CAT-2200 light chain (lambda) Y178K, FLAG-tagged; assay: LCCA
[27] = target: Pertuzumab light chain (kappa) V133G_S176D, HA-tagged; assay: LCCA; remark: listed apart in the source
[28] = target: CR8071 lambda light chain (L1) with E124K_Y178R, design 2830, System C; assay: SMCA, LC-MS
[29] = target: CR8071 lambda light chain (L1) with E124K_Y178R, design 2830, System C
[30] = target: Pertuzumab kappa light chain V133D_Q160E; assay: LCCA, SPR
[31] = target: Pertuzumab kappa light chain V133D; assay: LCCA, SPR
[32] = target: Pertuzumab kappa light chain V133D_Q160E; assay: LCCA, SPR; remark: listed apart in the source
[33] = target: CAT-2200 lambda light chain T131K_V133S; assay: LCCA, SPR
[34] = target: Pertuzumab kappa light chain Q124E_V133D_L135W; assay: LCCA, SPR tag read-out
[35] = target: CAT-2200 lambda light chain E124Q_T131K_V133S; assay: LCCA, SPR tag read-out
[36] = target: CR8071 lambda light chain (L1) with V133G_S176R, design 2188, System C; assay: SMCA, LC-MS
[37] = target: CR8071 lambda light chain (L1) with V133G_S176R, design 2188, System C
[38] = target: CAT-2200 light chain (lambda) T131K_V133S, FLAG-tagged; assay: LCCA; remark: listed apart in the source
[39] = target: CAT-2200 light chain (lambda) E124Q_T131K, FLAG-tagged; assay: LCCA
[40] = target: Pertuzumab light chain (kappa) V133L_S176D_T178E, HA-tagged; assay: LCCA
[41] = target: Pertuzumab light chain (kappa) V133L_S176D_T178E, HA-tagged; assay: LCCA; remark: listed apart in the source
[42] = target: Pertuzumab light chain (kappa) V133L_S176D_T178E, HA-tagged; assay: LCCA; remark: listed apart in the source
[43] = target: Pertuzumab light chain (kappa) V133L_S176D_T178E, HA-tagged; assay: LCCA; remark: listed apart in the source
[44] = target: Pertuzumab light chain (kappa) V133L_S176D_T178E, HA-tagged; assay: LCCA; remark: listed apart in the source
[45] = target: Pertuzumab light chain (kappa) V133I_S176D_T178E, HA-tagged; assay: LCCA; remark: listed apart in the source
[46] = target: Pertuzumab light chain (kappa) V133I_S176E_T178E, HA-tagged; assay: LCCA
[47] = target: Pertuzumab light chain (kappa) V133L_S176D_T178E, HA-tagged; assay: LCCA; remark: listed apart in the source
[48] = target: Pertuzumab kappa light chain S131D_V133G_T178F; assay: LCCA, SPR
[49] = target: Pertuzumab kappa light chain S131E_V133G_T178F; assay: LCCA, SPR
[50] = target: Pertuzumab kappa light chain S176E_T178E; assay: LCCA, SPR
[51] = target: Pertuzumab kappa light chain V133I_S176D_T178E; assay: LCCA, SPR
[52] = target: CAT-2200 lambda light chain E124Q_T131K; assay: LCCA, SPR
[53] = target: CAT-2200 lambda light chain E124Q_T131R; assay: LCCA, SPR
[54] = target: Pertuzumab kappa light chain S131D_V133G_T178F; assay: LCCA, SPR; remark: listed apart in the source
[55] = target: Pertuzumab kappa light chain S131E_V133G_T178F; assay: LCCA, SPR; remark: listed apart in the source
[56] = target: Pertuzumab kappa light chain S176E_T178E; assay: LCCA, SPR; remark: listed apart in the source
[57] = target: CAT-2200 lambda light chain E124Q_T131R; assay: LCCA, SPR; remark: listed apart in the source
[58] = target: CAT-2200 lambda light chain Y178K; assay: LCCA
[59] = target: Pertuzumab kappa light chain L135W_S176E_T178E; assay: LCCA
[60] = target: CAT-2200 lambda light chain E124Q_T131R; assay: LCCA, SPR tag read-out
[61] = target: Pertuzumab kappa light chain S131D_V133G_L135W_T178F; assay: LCCA, SPR tag read-out
[62] = target: Pertuzumab kappa light chain V133I_L135W_S176D_T178E; assay: LCCA, SPR tag read-out
[63] = target: CAT-2200 lambda light chain E124Q_T131R; assay: LCCA, SPR tag read-out; remark: listed apart in the source
[64] = target: SGN-CD19a kappa light chain (L2) with V133G_S176D, design 2188, Systems B and C; assay: SMCA, LC-MS
[65] = target: SGN-CD19a kappa light chain (L2) with V133G_S176D, design 2188, Systems B and C

- H2L2:H2L1 normalized median scalar value ln(r1/f1) [1]: 1.41
- H2L2:H2L1 normalized median scalar value ln(r1/f1) [2]: 2.67
- H2L2:H2L1 normalized median scalar value ln(r1/f1) [3]: 1.5
- H2L2:H2L1 normalized median scalar value ln(r1/f1) [4]: 2.71
- H2L2:H2L1 normalized median scalar value ln(r1/f1) [5]: 2.22
- H2L2:H2L1 normalized median scalar value ln(r1/f1) [6]: 1.67
- H2L2:H2L1 normalized median scalar value ln(r1/f1) [7]: 2.75
- H2L2:H2L1 normalized median scalar value ln(r1/f1) [8]: 2.33
Substance: Pertuzumab heavy chain Fab construct S188K

- H2L2:H2L1 normalized median scalar value ln(r1/f1) [9]: 0.22
- H2L2:H2L1 normalized median scalar value ln(r1/f1) [10]: 0.41
- H2L2:H2L1 normalized median scalar value ln(r1/f1) [11]: 0.02
- H2L2:H2L1 normalized median scalar value ln(r1/f1) [12]: 0.22
- H2L2:H2L1 normalized median scalar value ln(r1/f1) [13]: 0.77
- H2L2:H2L1 normalized median scalar value ln(r1/f1) [14]: 1.05
- H2L2:H2L1 normalized median ratio (H2L1 share) [15]: 31%
- H2L2:H2L1 normalized median ratio (H2L1 share) [16]: 22%
- H2L2:H2L1 normalized median ratio (H2L1 share) [17]: 26%
- H2L2:H2L1 normalized median scalar value ln(r1/f1) [18]: 0.82
- H2L2:H2L1 normalized median scalar value ln(r1/f1) [19]: 1.27
Substance: Pertuzumab heavy chain Fab construct S186K

- Change in % H2L2 Pairing with respect to wild type [20]: 20%
- % H2L2 Pairing [21]: 99.6%
Substance: SGN-CD19a full-length IgG1 heavy chain (H2) with S186R, design 2830, System C

- H2L2:H2L1 normalized median ratio, H2L2 share [22]: 84%
- H2L2:H2L1 normalized median scalar value ln(r1/f1) [22]: 1.68
- H2L2:H2L1 normalized median ratio, H2L2 share [23]: 83%
- H2L2:H2L1 normalized median scalar value ln(r1/f1) [23]: 1.56
- H2L2:H2L1 normalized median ratio (H2L1 share) [24]: 14%
- H2L2:H2L1 normalized median ratio (H2L1 share) [25]: 17%
- H2L2:H2L1 normalized median ratio (H2L1 share) [26]: 16%
- H2L2:H2L1 normalized median ratio, H2L2 share [27]: 86%
- H2L2:H2L1 normalized median scalar value ln(r1/f1) [27]: 1.8
Substance: Pertuzumab heavy chain Fab construct L124R

- Change in % H1L1 Pairing with respect to wild type [28]: -20.4%
- % H1L1 Pairing [29]: 28%
Substance: CR8071 full-length IgG1 heavy chain (H1) with L143E_K145T_Q179E, design 2830, System C

- H2L2:H2L1 normalized median ratio [30]: 74%
- H2L2:H2L1 normalized median scalar value ln(r1/f1) [30]: 1.05
- H2L2:H2L1 normalized median scalar value ln(r1/f1) [31]: 0.77
- H2L2:H2L1 normalized median scalar value ln(r1/f1) [32]: 0.22
- H2L2:H2L1 normalized median ratio [33]: 26%
- H2L2:H2L1 median scalar value [34]: 0.96 ln(ratio)
- H2L2:H2L1 normalized median ratio [34]: 72%
- H2L2:H2L1 normalized median ratio [35]: 28%
Substance: Pertuzumab Fab heavy chain S186K

- Change in % H1L1 Pairing with respect to wild type [36]: -23.5%
- % H1L1 Pairing [37]: 24.9%
Substance: CR8071 full-length IgG1 heavy chain (H1) with L124E, design 2188, System C

- H2L2:H2L1 normalized median scalar value ln(r1/f1) [9]: 0.36
- H2L2:H2L1 normalized median scalar value ln(r1/f1) [10]: 0.81
- H2L2:H2L1 normalized median scalar value ln(r1/f1) [11]: 0.26
- H2L2:H2L1 normalized median scalar value ln(r1/f1) [12]: 0.76
- H2L2:H2L1 normalized median scalar value ln(r1/f1) [13]: 0.92
- H2L2:H2L1 normalized median scalar value ln(r1/f1) [14]: 1.5
- H2L2:H2L1 normalized median ratio (H2L1 share) [38]: 28%
- H2L2:H2L1 normalized median ratio (H2L1 share) [39]: 31%
- H2L2:H2L1 normalized median ratio (H2L1 share) [16]: 17%
- H2L2:H2L1 normalized median scalar value ln(r1/f1) [18]: 1.18
- H2L2:H2L1 normalized median scalar value ln(r1/f1) [19]: 1.6
Substance: Pertuzumab heavy chain Fab construct L143I_S186K

- H2L2:H2L1 normalized median scalar value ln(r1/f1) [40]: 0.55
- H2L2:H2L1 normalized median scalar value ln(r1/f1) [41]: 1.64
- H2L2:H2L1 normalized median scalar value ln(r1/f1) [42]: 1.83
- H2L2:H2L1 normalized median scalar value ln(r1/f1) [43]: 2.15
- H2L2:H2L1 normalized median scalar value ln(r1/f1) [44]: 2.3
- H2L2:H2L1 normalized median scalar value ln(r1/f1) [45]: 2.58
- H2L2:H2L1 normalized median scalar value ln(r1/f1) [46]: 2.63
- H2L2:H2L1 normalized median scalar value ln(r1/f1) [47]: 2.38
Substance: Pertuzumab heavy chain Fab construct V177I_S188K

- H2L2:H2L1 normalized median scalar value ln(r1/f1) [48]: 2.22
- H2L2:H2L1 normalized median ratio [49]: 84%
- H2L2:H2L1 normalized median scalar value ln(r1/f1) [49]: 1.67
- H2L2:H2L1 normalized median scalar value ln(r1/f1) [50]: 2.75
- H2L2:H2L1 normalized median ratio [51]: 91%
- H2L2:H2L1 normalized median scalar value ln(r1/f1) [51]: 2.33
- H2L2:H2L1 normalized median ratio [52]: 15%
- H2L2:H2L1 normalized median ratio [53]: 16%
- H2L2:H2L1 normalized median scalar value ln(r1/f1) [54]: 1.5
- H2L2:H2L1 normalized median ratio [55]: 85%
- H2L2:H2L1 normalized median scalar value ln(r1/f1) [55]: 1.7
- H2L2:H2L1 normalized median scalar value ln(r1/f1) [56]: 2.71
- H2L2:H2L1 normalized median ratio [57]: 9%
- H2L2:H2L1 normalized median ratio [58]: 8%
- H2L2:H2L1 median scalar value [59]: 2.55 ln
- H2L2:H2L1 normalized median ratio [59]: 92%
- H2L2:H2L1 normalized median ratio [60]: 15%
- H2L2:H2L1 median scalar value [61]: 1.72 ln(ratio)
- H2L2:H2L1 normalized median ratio [61]: 85%
- H2L2:H2L1 median scalar value [62]: 2.03 ln(ratio)
- H2L2:H2L1 normalized median ratio [62]: 88%
- H2L2:H2L1 normalized median ratio [63]: 12%
Substance: Pertuzumab Fab heavy chain S188K

- Change in % H2L2 Pairing with respect to wild type [64]: 38.7% and 19.9%
- % H2L2 Pairing [65]: 92.9% and 99.5%
Substance: SGN-CD19a full-length IgG1 heavy chain (H2) with L124R, design 2188, Systems B and C
